Laboratory results as given in patent US20110151530.

Tested on: IcmBmp, icmB gene product of Methylibium petroleiphilum (subunit of hydroxyisobutyryl-CoA mutase)

B1: IcmAmp, icmA gene product of Methylibium petroleiphilum (subunit of hydroxyisobutyryl-CoA mutase) (enzyme)
chain: MTWLEPQIKSQLQSERKDWEANEVGAFLKKAPERKEQFHTIGDFPVQRTYTAADIADTPLEDIGLPGRYPFTRGPYPTMYRSRTWTMRQIAGFGTGEDTNKRFKYLIAQGQTGISTDFDMPTLMGYDSDHPMSDGEVGREGVAIDTLADMEALLADIDLEKISVSFTINPSAWILLAMYVALGEKRGYDLNKLSGTVQADILKEYMAQKEYIYPIAPSVRIVRDIITYSAKNLKRYNPINISGYHISEAGSSPLQEAAFTLANLITYVNEVTETGMHVDEFAPRLAFFFVSQGDFFEEVAKFRALRRCYAKIMKERFGAKNPESMRLRFHCQTAAATLTKPQYMVNVVRTSLQALSAVLGGAQSLHTNGYDEAFAIPTEDAMKMALRTQQIIAEESGVADVIDPLGGSYYVEALTTEYEKKIFEILEEVEKRGGTIKLIEQGWFQKQIADFAYETALRKQSGQKPVIGVNRFVENEEDVKIEIHPYDNTTAERQISRTRRVRAERDEAKVQAMLDQLVAVAKDESQNLMPLTIELVKAGATMGDIVEKLKGIWGTYRETPVF
B1 showed an Activity of purified enzyme (mUI/mg): Hydroxyisobutyryl-CoA mutase (with 3-Hydroxybutyryl-CoA 1 mM in aerobic conditions) of 2 mUI/mg, an Activity of purified enzyme (mUI/mg): Hydroxyisobutyryl-CoA mutase (with 3-Hydroxybutyryl-CoA 1 mM in anaerobic conditions) of 46 mUI/mg and an Activity of purified enzyme (mUI/mg): Hydroxyisobutyryl-CoA mutase (with 3-Hydroxybutyryl-CoA 10 mM in anaerobic conditions) of 223 mUI/mg.
